This is an account of results in patent US9193770.

The experiment concerns the target TLR5 of the luciferase reporter assay. Put plainly: cell-based or functional assay.

Turning to “native H7 flagellin purified from E. coli O157:H7 (ligand)”, the luciferase reporter assay, TLR5 activity amounted to 0.1 ng/mL.
